Laboratory results taken from US6812377B2, “Genetic engineering of syringyl-enriched lignin in plants” (Board of Control of Michigan Technological University, priority 2000, dated 2004).
Each block holds one molecule with its values, some of them ahead of it.

Columns and labels:
[1] = target: T1, recombinant PtCAD protein (Populus tremuloides, UniProt Q9M632); experiment: Kinetic properties of the recombinant PtCAD protein (HPLC-UV/MS); type: biochemical; settings: substrate of PtCAD; relative, coniferaldehyde = 100
Protocol: (§1) To characterize the enzyme pH optima, the substrate and recombinant PtCAD or PtSAD protein concentrations described above were used in sodium phosphate buffers, pH 5 to 8.5. […] For inhibition kinetics, the PtCAD-mediated reduction of sinapaldehyde (1 to 200 μM) was assayed in the presence of 1 to 5 μM coniferaldehyde, and the PtSAD-catalyzed reduction of coniferaldehyde (1 to 200 μM) was assayed in the presence of 1 to 5 μM sinapaldehyde. All reactions were terminated by the addition of 10 μL of 6 N HCI (to bring the pH to 2) and 500 ng of internal standard o-coumaric acid and analyzed by HPLC-UV/MS. An aliquot of 100 μL of reaction mixture was injected directly onto a Supelcosil LC-ABZ column (15 cm×4.6 mm×5 μm; Supelco, Bellefonte, Pa.) with automatic sample injection and separated isocratically with a Hewlett-Packard (HP) 1100 liquid chromatography system at 40° C. and a flow rate of 0.25 mL/min. […] The reaction products were identified and confirmed by comparing the ion fragmentation patterns of the product and the authentic standard in MS scanning mode at 70 V. The product quantity and Km, Vmax, kcat, and apparent inhibition constant (Ki) values (means±SE) were determined as described (Osakabe et al., 1999; Li et al., 2000). The results of the inhibition kinetics for both the CAD enzyme (i.e. Table 2) and the SAD enzyme (i.e., Table 3) using a variety of substrates are illustrated below.

[2] = target: recombinant PtSAD protein (Populus tremuloides, UniProt Q94G59); experiment: Kinetic properties of the recombinant PtSAD protein (HPLC-UV/MS); type: biochemical; settings: substrate of PtSAD; relative, sinapaldehyde = 100
Protocol: as §1

[3] = system: PtSAD recombinant protein; experiment: SAD enzyme activity assay, single and mixed substrates (HPLC-MS); type: biochemical, Populus tremuloides
Protocol: After 10 min at 30° C., the reaction was terminated and extracted with 0.5 ml ethyl acetate. The extraction was repeated 4 times and the combined ethyl acetate was evaporated and dissolved in the HPLC mobile phase for LC-MS identification and quantitation of the reaction products as we did before (Osakabe et al., 1999; Li et al. 2000). […] The SAD reactions with mixed substrates, sinapaldehyde and coniferyl aldehyde, were therefore conducted at the optimal pH 7.0 under above-described conditions. […] To characterize the enzyme pH optima, the substrate and recombinant PtCAD or PtSAD protein concentrations described above were used in sodium phosphate buffers, pH 5 to 8.5. All reactions were for 10 minutes at 30° C. An aliquot of 100 μL of reaction mixture was injected directly onto a Supelcosil LC-ABZ column (15 cm×4.6 mm×5 μm; Supelco, Bellefonte, Pa.) with automatic sample injection and separated isocratically with a Hewlett-Packard (HP) 1100 liquid chromatography system at 40° C. and a flow rate of 0.25 mL/min. […] The reaction products were identified and confirmed by comparing the ion fragmentation patterns of the product and the authentic standard in MS scanning mode at 70 V. The product quantity and Km, Vmax, kcat, and apparent inhibition constant (Ki) values (means±SE) were determined as described (Osakabe et al., 1999; Li et al., 2000). The results of the inhibition kinetics for both the CAD enzyme (i.e. Table 2) and the SAD enzyme (i.e., Table 3) using a variety of substrates are illustrated below.

[4] = target: T1, recombinant PtCAD protein; experiment: PtCAD enzyme activity with a mixture of coniferaldehyde and sinapaldehyde (HPLC-MS); type: biochemical
Source text: A guaiacyl pathway gene encoding coniferyl alcohol dehydrogenase (CAD, FIG. 1) from Populus tremuloides (GenBank #AF217957) was first cloned. This cDNA was designated as PtCAD (GenBank #AF217957). E. coli-expressed recombinant PtCAD protein was characterized for its catalytic activity with coniferaldehyde and sinapaldehyde. Because monolignol biosynthetic pathway intermediates are present together in lignifying tissues (Osakabe et al., 1999; Li et al. 2000), the PtCAD enzyme activity with a mixture of coniferaldehyde and sinapaldehyde was assayed. As shown in FIG. 5 (a) and (c), the reaction mixture was separated by HPLC after the enzyme reaction. […]
An aliquot of 100 μL of reaction mixture was injected directly onto a Supelcosil LC-ABZ column (15 cm×4.6 mm×5 μm; Supelco, Bellefonte, Pa.) with automatic sample injection and separated isocratically with a Hewlett-Packard (HP) 1100 liquid chromatography system at 40° C. and a flow rate of 0.25 mL/min. […] The reaction products were identified and confirmed by comparing the ion fragmentation patterns of the product and the authentic standard in MS scanning mode at 70 V. The product quantity and Km, Vmax, kcat, and apparent inhibition constant (Ki) values (means±SE) were determined as described (Osakabe et al., 1999; Li et al., 2000). […]

[5] = substrate: COc1cc(/C=C/C=O)ccc1O; experiment: Kinetic properties of the recombinant PtCAD protein (HPLC-UV/MS); type: biochemical, Populus tremuloides; settings: other: substrate of PtCAD, pH 8.0, 4 min, 30° C., NADPH, means of three independent assays
Protocol: as §1

[6] = substrate: COc1cc(/C=C/C=O)cc(O)c1O; experiment: as above; type: biochemical, Populus tremuloides; settings: other: substrate of PtCAD, pH 8.0, 4 min, 30° C., NADPH, means of three independent assays
Protocol: as §1

[7] = substrate: COc1cc(/C=C/C=O)cc(OC)c1O; experiment: as above; type: biochemical, Populus tremuloides; settings: other: substrate of PtCAD, pH 8.0, 4 min, 30° C., NADPH, means of three independent assays
Protocol: as §1

[8] = substrate: O=C/C=C/c1ccc(O)cc1; experiment: as above; type: biochemical, Populus tremuloides; settings: other: substrate of PtCAD, pH 8.0, 4 min, 30° C., NADPH, means of three independent assays
Protocol: as §1

[9] = substrate: O=C/C=C/c1ccc(O)c(O)c1; experiment: as above; type: biochemical, Populus tremuloides; settings: other: substrate of PtCAD, pH 8.0, 4 min, 30° C., NADPH, means of three independent assays
Protocol: as §1

[10] = substrate: COc1cc(/C=C/C=O)ccc1O; experiment: Kinetic properties of the recombinant PtSAD protein (HPLC-UV/MS); type: biochemical, Populus tremuloides; settings: other: substrate of PtSAD, pH 7.0, 4 min, 30° C., NADPH, means of three independent assays
[11] = substrate: COc1cc(/C=C/C=O)cc(O)c1O; experiment: as above; type: biochemical, Populus tremuloides; settings: other: substrate of PtSAD, pH 7.0, 4 min, 30° C., NADPH, means of three independent assays
[12] = substrate: COc1cc(/C=C/C=O)cc(OC)c1O; experiment: as above; type: biochemical, Populus tremuloides; settings: other: substrate of PtSAD, pH 7.0, 4 min, 30° C., NADPH, means of three independent assays
[13] = substrate: O=C/C=C/c1ccc(O)cc1; experiment: as above; type: biochemical, Populus tremuloides; settings: other: substrate of PtSAD, pH 7.0, 4 min, 30° C., NADPH, means of three independent assays
[14] = substrate: O=C/C=C/c1ccc(O)c(O)c1; experiment: as above; type: biochemical, Populus tremuloides; settings: other: substrate of PtSAD, pH 7.0, 4 min, 30° C., NADPH, means of three independent assays

Molecule: O=C/C=C/c1ccc(O)cc1 [p-Coumaraldehyde]
Vmax/Km [1]: 30.1% | Vmax/Km [2]: 27.4%

B1: recombinant PtCAD protein (Populus tremuloides) (protein)
chain: MGSLETERKIVGWAATDSTGHLAPYTYSLRDTGPEDVLIKVISCGICHTDIHQIKNDLGMSHYPMVPGHEVVGEVVEVGSDVTKFKAGDVVGVGVIVGSCKNCHPCKSELEQYCNKKIWSYNDVYTDGKPTQGGFAESMVVDQKFVVRIPDGMSPEQAAPLLCAGLTVYSPLKHFGLKQSGLRGGILGLGGVGHMGVKIAKAMGHHVTVISSSDKKREEAMEHLGADEYLVSSDVESMQKAADQLDYIIDTVPVVHPLEPYLSLLKLDGKLILMGVINTPLQFVSPMVMLGRKSITGSFIGSMKETEEMLEFCKEKGLASMIEVIKMDYINTAFERLEKNDVRYRFVVDVAGSKLIP
Km [5]: 2.3 µM | Vmax [5]: 0.21 µmol/min/mg | kcat [5]: 0.14 s⁻¹ | Km [6]: 17.5 µM | Vmax [6]: 0.17 µmol/min/mg | kcat [6]: 0.113 s⁻¹ | Km [7]: 9.1 µM | Vmax [7]: 0.1 µmol/min/mg | kcat [7]: 0.0667 s⁻¹ | Km [8]: 6.2 µM | Vmax [8]: 0.17 µmol/min/mg | kcat [8]: 0.113 s⁻¹ | Km [9]: 37.0 µM | Vmax [9]: 0.15 µmol/min/mg | kcat [9]: 0.1 s⁻¹

B2: recombinant PtSAD protein (Populus tremuloides) (protein)
chain: MSKSPEEEHPVKAFGWAARDQSGHLSPFNFSRRATGEEDVRFKVLYCGICHSDLHSIKNDWGFSMYPLVPGHEIVGEVTEVGSKVKKVNVGDKVGVGCLVGACHSCESCANDLENYCPKMILTYASIYHDGTITYGGYSDHMVANERYIIRFPDNMPLDGGAPLLCAGITVYSPLKYFGLDEPGKHIGIVGLGGLGHVAVKFAKAFGSKVTVISTSPSKKEEALKNFGADSFLVSRDQEQMQAAAGTLDGIIDTVSAVHPLLPLFGLLKSHGKLILVGAPEKPLELPAFSLIAGRKIVAGSGIGGMKETQEMIDFAAKHNITADIEVISTDYLNTAIERLAKNDVRYRFVIDVGNTLAATKP
Km [10]: 12.7 µM | Vmax [10]: 2.3 µmol/min/mg | kcat [10]: 1.53 s⁻¹ | Km [11]: 36.1 µM | Vmax [11]: 3.8 µmol/min/mg | kcat [11]: 2.53 s⁻¹ | Km [12]: 7.4 µM | Vmax [12]: 5 µmol/min/mg | kcat [12]: 3.33 s⁻¹ | Km [13]: 15.6 µM | Vmax [13]: 2.9 µmol/min/mg | kcat [13]: 1.93 s⁻¹ | Km [14]: 140.0 µM | Vmax [14]: 2 µmol/min/mg | kcat [14]: 1.33 s⁻¹

Other lines, results leading:

Vmax/Km [1]: 4.4% | Vmax/Km [2]: 2.2%
Molecule: O=C/C=C/c1ccc(O)c(O)c1 [Caffealdehyde]

Vmax/Km [1]: 10.6% | Vmax/Km [2]: 15.5%
Molecule: COc1cc(/C=C/C=O)cc(O)c1O [5-Hydroxyconiferaldehyde]

reaction of PtSAD with the substrate in a mixture ([3]; mixture of coniferaldehyde and sinapaldehyde, pH 7.0): sinapyl alcohol is the exclusive product | catalytic efficiency of PtSAD with sinapaldehyde versus coniferaldehyde ([3]; ratio of specific activities): 9 times | Vmax/Km [1]: 12.0% | reaction of PtCAD with the substrate in a mixture [4]: no reaction | Vmax/Km [2]: 100%
Molecule: COc1cc(/C=C/C=O)cc(OC)c1O [Sinapaldehyde]
